The values below come from article PMC10465357.

For the assay, the target named is 14-3-3 proteins. Put plainly: Western blot of purified virions, quantified. The conditions noted are these: read off a plot.
Consider UL32 (also known as pp150) 3/4mut, for which the ratio to parent is 0.06.

Regarding UL32 (also known as pp150) 4/5mut, the ratio to parent amounted to 0.02.

On to UL32 (also known as pp150) 3mut, for which the ratio to parent came to 0.48.
